The source of these data is patent US20230357425A1 (HARBOUR BIOMED SHANGHAI, published 2023).

The EC50 is the concentration at which the effect is half-maximal.

Substitutions are numbered along the chain they refer to. Names and notes keep the numbering of the source.

The labels stand for the following.
B1: PR000506 (antibody, human IgG1, kappa, L234A L235A, V domains shown)
VH: QVQLVESGGGVAQPGRSLSLSCAASGFTFSDYGMHWVRQAPGKGLEWVALIWYDGSFEYYADSVKGRFSISRDNSKNTLYLQMNSLRAEDTAVYYCVRDGQWGSRLDYWGQGTLVTVSS
VL: KIVMTQSPATLSLSPGERATLSCRASQSVSRYLAWYQQKPGQAPRLLIYDASNRATGIPARFSGSGSGTDFTLTISSLEPEDFAVYYCQQRSNWIFTFGPGTKVDIKR
notes: Recombinant antibody from hybridoma clone 38H6; also called 38H6E5 (clone name)
B2: PR000844 (antibody, human IgG1, kappa, L234A L235A, V domains shown)
VH: B1 VH with D54E, G100A
VL: B1 VL
notes: PTM-removal variant of PR000506 (heavy chain D54E, G100A)
B3: PR000849 (antibody, human IgG1, kappa, L234A L235A, V domains shown)
VH: B1 VH with G55A, D99E
VL: B1 VL with K1E, M4L
notes: PTM-removal variant of PR000851 (heavy chain G55A, D99E)
B4: Tab1 (antibody, human IgG1, lambda, V domains shown)
VH: EVQLLESGGGLVQPGGSLRLSCAASGFTFSSYAYSWVRQAPGKGLEWVSAISGSGGRTYYADSVKGRFTISRDNSKNTLYLQMNSLRAEDTAVYYCARLGYGRVDEWGRGTLVTVSS
VL: QSVLTQPPSASGTPGQRVTISCSGSLSNIGRNPVNWYQQLPGTAPKLLIYLDNLRLSGVPDRFSGSKSGTSASLAISGLQSEDEADYYCATWDDSHPGWTFGGGTKLTVLG
notes: also called PR002078; MEDI9447(TAB1)

The test has as its target T1, Cynomolgus monkey CD73 on HEK293-cynoCD73 stable cell line (cynomolgus monkey).
T1 construct: whole, on cells
Put plainly: flow cytometry on HEK293-cynoCD73 stable cells. How it is done:
Binding of antibodies to hCD73 and cynoCD73 expression in stable cell line was characterized by Flow cytometry. The cells were incubated with various concentration antibodies (the top concentration was 50 nM, 8 points, dilution factor 3), then incubate for 1 h at 4° C. Wash two times by PBS, then add the secondary antibody Goat anti-human(H+L) (Thermo fisher, A11013), incubate for 30 min at 4° C. And the fluorescence intensity was read by FACS Machine (BD FACS CantoII). A plot of median fluorescence intensity and the binding EC50 were fitted and calculated by GraphPad Prism 5.
In general terms: In flow cytometry, cells or beads pass a laser one at a time.
B1 registered an EC50 of 0.323 nM. To B2 belongs 0.475 nM; to B3, 0.515 nM. To B4 belongs 0.623 nM.
